Source: US20080107600A1 (published 2008)

T1: DISC1-FLAG (full-length human DISC1 with a C-terminal FLAG tag) (human, UniProt Q9NRI5 1-854)
T1 construct: also called FLAG-tagged DISC1
T1 sequence: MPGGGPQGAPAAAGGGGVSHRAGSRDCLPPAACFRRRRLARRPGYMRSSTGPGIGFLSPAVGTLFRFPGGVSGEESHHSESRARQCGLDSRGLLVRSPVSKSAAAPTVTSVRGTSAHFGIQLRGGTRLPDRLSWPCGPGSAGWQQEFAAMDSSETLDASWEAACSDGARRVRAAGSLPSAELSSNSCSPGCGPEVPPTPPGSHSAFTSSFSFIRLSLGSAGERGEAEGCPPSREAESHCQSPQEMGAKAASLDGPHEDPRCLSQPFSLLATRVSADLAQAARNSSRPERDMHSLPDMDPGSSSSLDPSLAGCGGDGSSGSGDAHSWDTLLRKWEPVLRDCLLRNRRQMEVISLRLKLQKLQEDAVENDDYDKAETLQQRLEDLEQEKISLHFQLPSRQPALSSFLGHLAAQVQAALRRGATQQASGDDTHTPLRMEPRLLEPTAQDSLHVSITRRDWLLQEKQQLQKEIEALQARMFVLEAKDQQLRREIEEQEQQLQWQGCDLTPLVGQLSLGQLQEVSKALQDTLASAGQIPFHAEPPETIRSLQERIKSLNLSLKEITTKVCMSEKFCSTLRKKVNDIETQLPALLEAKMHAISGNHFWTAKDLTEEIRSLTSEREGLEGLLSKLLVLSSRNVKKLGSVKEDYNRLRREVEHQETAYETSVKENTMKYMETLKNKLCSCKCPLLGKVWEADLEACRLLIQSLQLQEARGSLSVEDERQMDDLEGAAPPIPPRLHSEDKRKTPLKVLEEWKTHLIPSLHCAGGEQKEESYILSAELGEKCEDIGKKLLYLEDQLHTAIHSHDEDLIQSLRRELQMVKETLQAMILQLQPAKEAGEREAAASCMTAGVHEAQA

T2: DISC1/ΔBR-FLAG (deleted DISC1 that lacks the FEZ1-binding region, FLAG-tagged) (human, UniProt Q9NRI5 1-854)
T2 sequence: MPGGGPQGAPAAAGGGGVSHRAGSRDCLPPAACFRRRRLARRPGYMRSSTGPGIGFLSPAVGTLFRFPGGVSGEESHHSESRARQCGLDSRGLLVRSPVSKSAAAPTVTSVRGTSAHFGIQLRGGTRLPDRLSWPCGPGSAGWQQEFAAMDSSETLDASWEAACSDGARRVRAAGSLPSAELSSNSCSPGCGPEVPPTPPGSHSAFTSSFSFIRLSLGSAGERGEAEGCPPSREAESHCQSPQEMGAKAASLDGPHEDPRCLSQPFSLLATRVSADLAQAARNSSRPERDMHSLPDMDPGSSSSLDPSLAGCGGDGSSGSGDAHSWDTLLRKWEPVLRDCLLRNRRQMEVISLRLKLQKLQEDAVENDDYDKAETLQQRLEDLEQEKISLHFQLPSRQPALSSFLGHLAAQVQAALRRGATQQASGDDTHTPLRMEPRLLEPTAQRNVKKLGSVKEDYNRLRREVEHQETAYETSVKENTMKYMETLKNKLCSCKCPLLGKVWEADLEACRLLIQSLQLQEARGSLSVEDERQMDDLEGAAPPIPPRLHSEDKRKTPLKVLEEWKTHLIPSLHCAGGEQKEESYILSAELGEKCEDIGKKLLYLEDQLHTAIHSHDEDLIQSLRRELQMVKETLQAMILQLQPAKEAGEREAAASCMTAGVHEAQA


How the values were obtained:
[1] = target: T1, DISC1-FLAG (full-length human DISC1 …); assay: anti-FLAG immunoprecipitation from stable PC12 cells with or without NGF (50 ng/ml, 24 hours), blot with anti-FEZ1
Procedure: Stably DISC1-FLAG-expressing PC12 cells were stimulated with a nerve growth factor (NGF) (50 ng/ml) for 24 hours and collected. Lysates were immunoprecipitated by anti-FLAG antibody. Immunoprecipitated complexes were subjected to SDS-PAGE and blotted with anti-FEZ1 antibody. […] Cells were either unstimulated (b, e, h, k) or stimulated with NGF (50 ng/ml) for 24 hours (c, f, 1,1), and 48 hours (d, g, J, m) and their neurites were subsequently microscopically observed.
(§1) HEK293T cells were transfected with DISC1-FLAG and FEZ1-HA, individually or in combination. FLAG-tagged truncated forms of DISC1 mentioned in the Plasmids section were also transfected in combination with FEZ-HA. Cells were lysed in TNE buffer/1% NP40. Prepared lysates were incubated with anti-FLAG antibody for 2 hours at 4° C. and then with Protein Gagarose (Invitrogen) for 1 hour at 4° C. The agarose beads were then washed five times with TNE buffer. Immunoprecipitates were subjected to SDS-PAGE and blotted with anti-HA antibody. Conversely, immunoprecipitates with anti-HA antibody were blotted with anti-FLAG antibody. PC12 cells were transfected with FEZ1-HA or mock and then lysed in TNE buffer/1% NP40. Lysates were immunoprecipitated by anti-HA antibody. Immunoprecipitates were subjected to SDS-PAGE and blotted with anti-actin antibody. […]

[2] = target: T2, DISC1/ΔBR-FLAG (deleted DISC1 that …); assay: co-immunoprecipitation from transfected HEK293T cells, anti-FLAG / anti-HA
Procedure: (a) Yeast two-hybrid assay to determine the binding regions of FEZ1 (upper panel) and DISC1 (lower panel). Open bars indicate the FEZ1 clone obtained by the screening and DISC1 clone used as bait. Closed bars indicate shorter fragments. […] The α-galactosidase activity of yeast transformants were assayed. +++ indicates strongly positive as a positive control. ++, + and − indicate moderately positive, weakly positive and negative, respectively. (b) DISC1 coimmunoprecipitated with FEZ1. HEK293T cells were transfected with DISC1-FLAG and FEZ1-HA, individually or in combination. […] Immunoprecipitates by anti-FLAG or anti-HA antibody were blotted with the reciprocal antibody.
as §1, with “NP40.” for “NP40. Lysates were immunoprecipitated by anti-HA antibody. Immunoprecipitates were subjected to SDS-PAGE and blotted with anti-actin antibody.”

binding result [1]	binding result [2]	Binder
binds	–	endogenous FEZ1 of PC12 cells (other, rat, UniProt P97577 1-393, looked up) MEAPLVSLDEEFEDIRPCCTEDPEEKPQSLYGTSPHHLEDPSLSELENFSSEIISFKSMEDLVNEFDEKLNVCFRNYNAKTENLAPVKNQLQIQEEEETLRDEEVWDALTDNYIPSLSEDWRDPNIEALNGNSSDTEIHEKEEEDEFIEKSENDSGINEEPLLTADQVIEEIEEMMQNSPDPEEEVEVLEEEDGGEISSQADSVLLQEMQALTQTFNNNWSYEGLRHMSGSELTELLDQVEGAIRDFSEELVHQLARRDELEFEKEVKNSFITVLIEVQNKQKEQRELMKKRRKEKGLSLQSSRIEKGNQMPLKRFSMEGISNILQSGIRQTFGSSGADRQYLNTVIPYEKKSSPPSVEDLQMLTNILFAMKEDNEKVPTLLTDYILKVLCPT
–	no binding	FEZ1-HA (human FEZ1 with a C-terminal HA tag) (other, not shown: small tags and cut ends, Expressed from pcDNA3.1(+) in HEK293T or PC12 cells; also called HA-tagged FEZ1; FEZ-HA) MEAPLVSLDEEFEDLRPSCSEDPEEKPQCFYGSSPHHLEDPSLSELENFSSEIISFKSMEDLVNEFDEKLNVCFRNYNAKTENLAPVKNQLQIQEEEETLQDEEVWDALTDNYIPSLSEDWRDPNIEALNGNCSDTEIHEKEEEEFNEKSENDSGINEEPLLTADQVIEEIEEMMQNSPDPEEEEEVLEEEDGGETSSQADSVLLQEMQALTQTFNNNWSYEGLRHMSGSELTELLDQVEGAIRDFSEELVQQLARRDELEFEKEVKNSFITVLIEVQNKQKEQRELMKKRRKEKGLSLQSSRIEKGNQMPLKRFSMEGISNILQSGIRQTFGSSGTDKQYLNTVIPYEKKASPPSVEDLQMLTNILFAMKEDNEKVPTLLTDYILKVLCPT
